Experiments:
Experiment in all cases: ITC; peptide (100 uM stock in ddH2O) titrated into PadeB1 or variant (5-10 uM) in the sample cell; 50 mM Tris, 5 mM MgCl2, pH 8.0; 25 °C; One Set of Sites model; triplicate
[1] = biological target: PadeB1 (Paenibacillus dendritiformis C454)
[2] = biological target: PadeB1 K28A (Paenibacillus dendritiformis C454)
[3] = biological target: PadeB1 D23A (Paenibacillus dendritiformis C454)
[4] = biological target: PadeB1 N40A (Paenibacillus dendritiformis C454)
[5] = biological target: PadeB1 W49A (Paenibacillus dendritiformis C454)
[6] = biological target: PadeB1 I61A (Paenibacillus dendritiformis C454)
[7] = biological target: PadeB1 D79A (Paenibacillus dendritiformis C454)
[8] = biological target: PadeB1 Y38A (Paenibacillus dendritiformis C454)

Substance | Kd [1] [nM] | Kd [2] [nM] | Kd [3] [nM] | Kd [4] [nM] | Kd [5] [nM] | Kd [6] [nM] | Kd [7] [nM] | Kd [8] [nM]
full-length precursor peptide GP-PadeA | 4 | – | – | – | – | – | – | –
leader peptide of PadeA | 5.3 | 2.7 | 2.4 | 16 | 140 | 73 | 150 | 6.2

— PMC5067487
